In US20120316071A1 (published 2012):

T1: rHuman Erythropoietin R/Fc Chimera, CF (R&D Systems Cat#963-ER) (human, UniProt P19235 25-250)
T1 construct: Bought recombinant protein; also called EPO R; EPO R/Fc; Fc part of the bought chimera not given
T1 sequence (looked up): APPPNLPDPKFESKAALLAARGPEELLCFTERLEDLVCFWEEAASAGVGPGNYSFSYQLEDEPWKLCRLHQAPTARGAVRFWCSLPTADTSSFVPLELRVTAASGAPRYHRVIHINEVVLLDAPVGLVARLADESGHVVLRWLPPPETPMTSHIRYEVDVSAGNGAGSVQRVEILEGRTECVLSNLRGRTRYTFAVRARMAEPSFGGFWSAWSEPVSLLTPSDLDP

T2: rHuman Erythropoietin R/Fc Chimera, CF (R&D Systems Cat#963-ER) (human, UniProt P19235 25-250)
T2 construct: Bought recombinant protein; also called EPO R; Epo R; Fc part of the bought chimera not given
T2 sequence (looked up): T1 sequence (looked up)

B1: Fab VH3-23_IGHD2-21*01>3_IGHJ6*01 H100E/S108P/Y113G (EPG) Y109W & V2-13_IGLJ2*01 (Fab, V domains shown)
VH: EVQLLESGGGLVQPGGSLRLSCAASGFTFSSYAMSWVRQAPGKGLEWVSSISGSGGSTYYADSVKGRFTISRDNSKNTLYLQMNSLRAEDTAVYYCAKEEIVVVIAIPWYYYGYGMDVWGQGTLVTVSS
VL: SSELTQDPAVSVALGQTVRITCQGDSLRSYYASWYQQKPGQAPVLVIYGKNNRPSGIPDRFSGSSSGNTASLTITGAQAEDEADYYCNSRDSSGNHLVVFGGGTKLTVL
notes: Fab; NNK mutant of the EPG heavy chain; CH1 (tags) and lambda CL come from the vectors
B2: Fab VH3-23_IGHD2-21*01>3_IGHJ6*01 H100E/S108P/Y113G (EPG) & V2-13_IGLJ2*01 (Fab, V domains shown)
VH: not shown
VL: B1 VL
notes: Fab; CH1 (His and Flag tags) and lambda CL come from the expression vectors; also called H:EPG
B3: Fab VH3-23_IGHD2-21*01>3_IGHJ6*01 H100E/S108P/Y113G Y109G & V2-13_IGLJ2*01 (Fab, V domains shown)
VH: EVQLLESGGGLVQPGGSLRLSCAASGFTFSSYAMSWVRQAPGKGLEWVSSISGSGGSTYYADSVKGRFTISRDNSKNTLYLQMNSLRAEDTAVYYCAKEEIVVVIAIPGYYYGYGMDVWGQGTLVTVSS
VL: B1 VL
notes: Tested as Fab made in E. coli: VH joined to CH1 (His and Flag tags), VL joined to lambda CL; also called EPG Y109G
B4: Fab VH3-23_IGHD2-21*01>3_IGHJ6*01 H100E/S108P/Y113G Y109R & V2-13_IGLJ2*01 (Fab, V domains shown)
VH: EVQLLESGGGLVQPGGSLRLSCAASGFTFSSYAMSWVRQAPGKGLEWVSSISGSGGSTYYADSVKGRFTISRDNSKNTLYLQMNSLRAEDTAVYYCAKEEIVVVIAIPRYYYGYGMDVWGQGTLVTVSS
VL: B1 VL
notes: also called EPG Y109R
B5: Fab VH3-23_IGHD2-21*01>3_IGHJ6*01 H100E/S108P/Y113G Y110H & V2-13_IGLJ2*01 (Fab, V domains shown)
VH: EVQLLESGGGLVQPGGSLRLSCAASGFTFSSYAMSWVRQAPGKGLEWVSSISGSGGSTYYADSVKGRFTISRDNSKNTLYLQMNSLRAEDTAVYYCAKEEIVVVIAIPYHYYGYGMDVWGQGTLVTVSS
VL: B1 VL
notes: Tested as Fab made in E. coli: VH joined to CH1 (His and Flag tags), VL joined to lambda CL; also called EPG Y110H
B6: Fab VH3-23_IGHD2-21*01>3_IGHJ6*01 H100E/S108P/Y113G Y110N & V2-13_IGLJ2*01 (Fab, V domains shown)
VH: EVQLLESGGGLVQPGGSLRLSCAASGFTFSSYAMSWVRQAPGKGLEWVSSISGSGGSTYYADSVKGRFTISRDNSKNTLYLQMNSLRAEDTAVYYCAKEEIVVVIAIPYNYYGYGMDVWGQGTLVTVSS
VL: B1 VL
notes: Tested as Fab made in E. coli: VH joined to CH1 (His and Flag tags), VL joined to lambda CL; also called EPG Y110N
B7: Fab VH3-23_IGHD2-21*01>3_IGHJ6*01 H100E/S108P/Y113G Y110P & V2-13_IGLJ2*01 (Fab, V domains shown)
VH: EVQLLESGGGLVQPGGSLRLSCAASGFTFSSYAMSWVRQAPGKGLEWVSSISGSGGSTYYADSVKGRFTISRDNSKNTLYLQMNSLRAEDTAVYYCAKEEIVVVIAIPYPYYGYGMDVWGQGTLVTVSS
VL: B1 VL
notes: Tested as Fab made in E. coli: VH joined to CH1 (His and Flag tags), VL joined to lambda CL; also called EPG Y110P
B8: Fab VH3-23_IGHD2-21*01>3_IGHJ6*01 H100E/S108P/Y113G Y110S & V2-13_IGLJ2*01 (Fab, V domains shown)
VH: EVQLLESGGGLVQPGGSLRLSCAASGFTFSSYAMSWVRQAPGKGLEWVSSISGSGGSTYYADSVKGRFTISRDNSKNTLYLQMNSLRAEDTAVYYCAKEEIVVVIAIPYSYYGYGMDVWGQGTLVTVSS
VL: B1 VL
notes: Tested as Fab made in E. coli: VH joined to CH1 (His and Flag tags), VL joined to lambda CL; also called EPG Y110S

Molecular target: T3, rHuman P-Cadherin/Fc Chimera, CF (R&D Systems Cat#861-PC) (human, UniProt P22223 108-654)
T3 construct: Bought recombinant protein; Fc part of the bought chimera not given
Assay: ECL multispot (MSD), 20 nM Fab;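 also: purified Fab binding to antigens on multispot plates, read by electrochemiluminescence with a TAG-labelled detection antibody, 1 h Fab incubation at 20 °C, signal expressed relative to each well's blank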

B1 was tested, and the “ECL signal ratio (column head gives no unit)” value was 32.

Molecular target: T1, rHuman Erythropoietin R/Fc Chimera, CF …
Assay: ECL multispot (MSD), 20 nM Fab;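 also: purified Fab binding to antigens on multispot plates, read by electrochemiluminescence with a TAG-labelled detection antibody, 1 h Fab incubation at 20 °C, signal expressed relative to each well's blank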

With B1 the “ECL signal ratio (column head gives no unit)” value was 169.

Molecular target: T4, rHuman EGF R/Fc Chimera, CF (R&D Systems Cat#344-ER) (human, UniProt P00533 25-645)
T4 construct: Bought recombinant protein; also called epidermal growth factor receptor; Fc part of the bought chimera not given
Assay: ECL multispot (MSD), 20 nM Fab;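 also: purified Fab binding to antigens on multispot plates, read by electrochemiluminescence with a TAG-labelled detection antibody, 1 h Fab incubation at 20 °C, signal expressed relative to each well's blank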

Compared with B2, B1 is higher in “ECL signal ratio (column head gives no unit)” value: 8.4 for the first, 11.1 for the second.

Molecular target: T5, rHuman IGF-1 sR, (IGF-1 sR), CF (R&D Systems Cat#391-GR) (human, UniProt P08069 31-932)
T5 construct: Bought recombinant soluble receptor; also called insulin-like growth factor-1 soluble receptor
Assay: ECL multispot (MSD), 20 nM Fab;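 also: purified Fab binding to antigens on multispot plates, read by electrochemiluminescence with a TAG-labelled detection antibody, 1 h Fab incubation at 20 °C, signal expressed relative to each well's blank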

Going from B2 to B1, the “ECL signal ratio (column head gives no unit)” value falls from 1.7 to 1.5.

Molecular target: T6, rHuman ErbB2/Fc Chimera, CF (R&D Systems Cat#1129-ER) (human, UniProt P04626 23-652)
T6 construct: Bought recombinant protein; also called human epidermal growth factor 2 receptor; Fc part of the bought chimera not given
Assay: ECL multispot (MSD), 20 nM Fab

First: B2
Second: B1
The “ECL signal ratio (column head gives no unit)” value of the first is lower: 11.7 for the first, 16.1 for the second.

Molecular target: T7, rHuman CD44/Fc Chimera, CF (R&D Systems Cat#3660-CD) (human, UniProt P16070 21-220)
T7 construct: Bought recombinant protein; Fc part of the bought chimera not given
Assay: ECL multispot (MSD), 20 nM Fab

With B2 the “ECL signal ratio (column head gives no unit)” value was 1.7.

Molecular target: T8, rHuman ErbB2/Fc Chimera, CF (R&D Systems Cat#1129-ER) (human, UniProt P04626 23-652)
T8 construct: Bought recombinant protein; also called human epidermal growth factor 2 receptor; Fc part of the bought chimera not given
Assay: ECL multispot (MSD) binding assay, antigens spotted on plate, 20 nM Fab;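 also: fab incubated 1 h at 20 °C on antigen-spotted wells, bound Fab detected by TAG-labelled antibody, ratio of 4 or more over blank counted as a hit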

Going from B3 to B4, the “ECL multispot signal (ratio to blank; column not labelled)” value rises from 1.4 to 2.

First: B5
Second: B6
The “ECL multispot signal (ratio to blank; column not labelled)” value of the first is higher: 2.2 for the first, 1.2 for the second.

Compared with B7, B8 is higher in “ECL multispot signal (ratio to blank; column not labelled)” value: 0.9 for the first, 1 for the second.

Molecular target: T9, rHuman P-Cadherin/Fc Chimera, CF (R&D Systems Cat#861-PC) (human, UniProt P22223 108-654)
T9 construct: Bought recombinant protein; Fc part of the bought chimera not given
Assay: as above

First: B4
Second: B6
The “ECL multispot signal (ratio to blank; column not labelled)” value of the first is higher: 7.4 for the first, 1.2 for the second.

Going from B7 to B8, the “ECL multispot signal (ratio to blank; column not labelled)” value rises from 1.7 to 1.9.

Molecular target: T10, rHuman CD44/Fc Chimera, CF (R&D Systems Cat#3660-CD) (human, UniProt P16070 21-220)
T10 construct: Bought recombinant protein; Fc part of the bought chimera not given
Assay: as above

Compared with B3, B4 is lower in “ECL multispot signal (ratio to blank; column not labelled)” value: 1.5 for the first, 1 for the second.

First: B5
Second: B6
The “ECL multispot signal (ratio to blank; column not labelled)” value of the first is higher: 1.4 for the first, 0.8 for the second.

First: B7
Second: B8
The “ECL multispot signal (ratio to blank; column not labelled)” value of the first is higher: 1.2 for the first, 1 for the second.

Molecular target: T11, rHuman IGF-1 sR, (IGF-1 sR), CF (R&D Systems Cat#391-GR) (human, UniProt P08069 31-932)
T11 construct: Bought recombinant soluble receptor; The column head prints only 'IGF-1'; also called insulin-like growth factor-1 soluble receptor
Assay: as above

Going from B3 to B4, the “ECL multispot signal (ratio to blank; column not labelled)” value falls from 1.6 to 1.3.

First: B5
Second: B6
The “ECL multispot signal (ratio to blank; column not labelled)” value of the first is higher: 1.3 for the first, 0.9 for the second.

Compared with B7, B8 is lower in “ECL multispot signal (ratio to blank; column not labelled)” value: 1.2 for the first, 1.1 for the second.

Molecular target: T2, rHuman Erythropoietin R/Fc Chimera, CF …
Assay: as above

Going from B3 to B4, the “ECL multispot signal (ratio to blank; column not labelled)” value rises from 11.1 to 30.1.

First: B6
Second: B7
The “ECL multispot signal (ratio to blank; column not labelled)” value of the first is lower: 1.6 for the first, 2.9 for the second.

B8 was tested, and the “ECL multispot signal (ratio to blank; column not labelled)” value was 4.5.

Molecular target: T12, rHuman Notch-1/Fc Chimera, CF (R&D Systems Cat#3647-TK) (human, UniProt P46531 19-526)
T12 construct: Bought recombinant protein; Fc part of the bought chimera not given
Assay: as above

First: B3
Second: B4
The “ECL multispot signal (ratio to blank; column not labelled)” value of the first is higher: 1.5 for the first, 1.4 for the second.

Compared with B5, B6 is lower in “ECL multispot signal (ratio to blank; column not labelled)” value: 1.4 for the first, 1.3 for the second.

Compared with B7, B8 is lower in “ECL multispot signal (ratio to blank; column not labelled)” value: 1.1 for the first, 0.8 for the second.

Molecular target: T13, rHuman EGF R/Fc Chimera, CF (R&D Systems Cat#344-ER) (human, UniProt P00533 25-645)
T13 construct: Bought recombinant protein; also called epidermal growth factor receptor; Fc part of the bought chimera not given
Assay: as above

Compared with B3, B4 is lower in “ECL multispot signal (ratio to blank; column not labelled)” value: 2 for the first, 1.8 for the second.

Compared with B5, B6 is lower in “ECL multispot signal (ratio to blank; column not labelled)” value: 1.7 for the first, 0.9 for the second.

First: B7
Second: B8
The “ECL multispot signal (ratio to blank; column not labelled)” value of the first is lower: 1.1 for the first, 1.3 for the second.

Molecular target: T14, Recombinant Human DLL4 (R&D Systems Cat#1506-D4/CF) (human, UniProt Q9NR61 27-524)
T14 construct: Bought recombinant protein; also called delta-like protein 4; rHuman DLL4
Assay: as above

Going from B3 to B4, the “ECL multispot signal (ratio to blank; column not labelled)” value falls from 1.9 to 1.5.

Compared with B5, B6 is lower in “ECL multispot signal (ratio to blank; column not labelled)” value: 1.9 for the first, 1.2 for the second.

Compared with B7, B8 is lower in “ECL multispot signal (ratio to blank; column not labelled)” value: 1.4 for the first, 1.2 for the second.
